Test results from US20110166062A1 (INDIANA UNIVERSITY RESEARCH AND TECHNOLOGY, published 2011).
Bridges are numbered along the chain shown (N, C = ends). Where no end group is shown, it is not given here.

T1: GIP receptor (UniProt P48546 22-466)
T1 sequence (looked up): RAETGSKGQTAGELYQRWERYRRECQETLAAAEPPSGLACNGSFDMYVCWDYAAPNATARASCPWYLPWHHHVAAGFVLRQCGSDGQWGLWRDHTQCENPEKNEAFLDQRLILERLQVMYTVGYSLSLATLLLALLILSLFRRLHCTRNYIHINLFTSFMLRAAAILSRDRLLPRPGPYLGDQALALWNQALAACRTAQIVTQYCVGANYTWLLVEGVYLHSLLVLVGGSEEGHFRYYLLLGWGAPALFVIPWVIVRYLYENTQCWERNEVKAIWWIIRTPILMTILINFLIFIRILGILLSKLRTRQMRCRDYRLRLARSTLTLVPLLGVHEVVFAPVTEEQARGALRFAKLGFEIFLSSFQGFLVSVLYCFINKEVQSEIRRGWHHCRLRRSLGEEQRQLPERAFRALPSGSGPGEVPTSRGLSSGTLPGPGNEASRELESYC

B1: mt-110 (peptide)
peptide: YSQGTFTSDYSIYLDEIHQKDFVNWLLAQ-NH2
modifications: lactam 16-20; N-terminus assumed
SMILES: CC[C@H](C)[C@H](NC(=O)[C@H](CO)NC(=O)[C@H](Cc1ccc(O)cc1)NC(=O)[C@H](CC(=O)O)NC(=O)[C@H](CO)NC(=O)[C@@H](NC(=O)[C@H](Cc1ccccc1)NC(=O)[C@@H](NC(=O)CNC(=O)[C@H](CCC(N)=O)NC(=O)[C@H](CO)NC(=O)[C@@H](N)Cc1ccc(O)cc1)[C@@H](C)O)[C@@H](C)O)C(=O)N[C@@H](Cc1ccc(O)cc1)C(=O)N[C@@H](CC(C)C)C(=O)N[C@@H](CC(=O)O)C(=O)N[C@H]1CCC(=O)NCCCC[C@@H](C(=O)N[C@@H](CC(=O)O)C(=O)N[C@@H](Cc2ccccc2)C(=O)N[C@H](C(=O)N[C@@H](CC(N)=O)C(=O)N[C@@H](Cc2c[nH]c3ccccc23)C(=O)N[C@@H](CC(C)C)C(=O)N[C@@H](CC(C)C)C(=O)N[C@@H](C)C(=O)N[C@@H](CCC(N)=O)C(N)=O)C(C)C)NC(=O)[C@H](CCC(N)=O)NC(=O)[C@H](Cc2c[nH]cn2)NC(=O)[C@H]([C@@H](C)CC)NC1=O
B2: mt-111 (peptide)
peptide: HSQGTFTSDYSKYLDEIHQKDFVNWLLAQ-NH2
modifications: lactam 16-20; N-terminus assumed
SMILES: CC[C@H](C)[C@@H]1NC(=O)[C@@H](NC(=O)[C@H](CC(=O)O)NC(=O)[C@H](CC(C)C)NC(=O)[C@H](Cc2ccc(O)cc2)NC(=O)[C@H](CCCCN)NC(=O)[C@H](CO)NC(=O)[C@H](Cc2ccc(O)cc2)NC(=O)[C@H](CC(=O)O)NC(=O)[C@H](CO)NC(=O)[C@@H](NC(=O)[C@H](Cc2ccccc2)NC(=O)[C@@H](NC(=O)CNC(=O)[C@H](CCC(N)=O)NC(=O)[C@H](CO)NC(=O)[C@@H](N)Cc2c[nH]cn2)[C@@H](C)O)[C@@H](C)O)CCC(=O)NCCCC[C@@H](C(=O)N[C@@H](CC(=O)O)C(=O)N[C@@H](Cc2ccccc2)C(=O)N[C@H](C(=O)N[C@@H](CC(N)=O)C(=O)N[C@@H](Cc2c[nH]c3ccccc23)C(=O)N[C@@H](CC(C)C)C(=O)N[C@@H](CC(C)C)C(=O)N[C@@H](C)C(=O)N[C@@H](CCC(N)=O)C(N)=O)C(C)C)NC(=O)[C@H](CCC(N)=O)NC(=O)[C@H](Cc2c[nH]cn2)NC1=O
B3: mt-107 (peptide)
peptide: HSQGTFISDYSKYLDEIHQKEFIAWLMNT-NH2
modifications: lactam 16-20; N-terminus assumed
SMILES: CC[C@H](C)[C@H](NC(=O)[C@H](Cc1ccccc1)NC(=O)[C@H](CCC(=O)O)NC(=O)[C@@H]1CCCCNC(=O)CC[C@H](NC(=O)[C@H](CC(=O)O)NC(=O)[C@H](CC(C)C)NC(=O)[C@H](Cc2ccc(O)cc2)NC(=O)[C@H](CCCCN)NC(=O)[C@H](CO)NC(=O)[C@H](Cc2ccc(O)cc2)NC(=O)[C@H](CC(=O)O)NC(=O)[C@H](CO)NC(=O)[C@@H](NC(=O)[C@H](Cc2ccccc2)NC(=O)[C@@H](NC(=O)CNC(=O)[C@H](CCC(N)=O)NC(=O)[C@H](CO)NC(=O)[C@@H](N)Cc2c[nH]cn2)[C@@H](C)O)[C@@H](C)CC)C(=O)N[C@@H]([C@@H](C)CC)C(=O)N[C@@H](Cc2c[nH]cn2)C(=O)N[C@@H](CCC(N)=O)C(=O)N1)C(=O)N[C@@H](C)C(=O)N[C@@H](Cc1c[nH]c2ccccc12)C(=O)N[C@@H](CC(C)C)C(=O)N[C@@H](CCSC)C(=O)N[C@@H](CC(N)=O)C(=O)N[C@H](C(N)=O)[C@@H](C)O
B4: mt-108 (peptide)
peptide: HSQGTFISDYSKALDEIHQKEFIAWLMNT-NH2
modifications: lactam 16-20; N-terminus assumed
SMILES: CC[C@H](C)[C@H](NC(=O)[C@H](Cc1ccccc1)NC(=O)[C@H](CCC(=O)O)NC(=O)[C@@H]1CCCCNC(=O)CC[C@H](NC(=O)[C@H](CC(=O)O)NC(=O)[C@H](CC(C)C)NC(=O)[C@H](C)NC(=O)[C@H](CCCCN)NC(=O)[C@H](CO)NC(=O)[C@H](Cc2ccc(O)cc2)NC(=O)[C@H](CC(=O)O)NC(=O)[C@H](CO)NC(=O)[C@@H](NC(=O)[C@H](Cc2ccccc2)NC(=O)[C@@H](NC(=O)CNC(=O)[C@H](CCC(N)=O)NC(=O)[C@H](CO)NC(=O)[C@@H](N)Cc2c[nH]cn2)[C@@H](C)O)[C@@H](C)CC)C(=O)N[C@@H]([C@@H](C)CC)C(=O)N[C@@H](Cc2c[nH]cn2)C(=O)N[C@@H](CCC(N)=O)C(=O)N1)C(=O)N[C@@H](C)C(=O)N[C@@H](Cc1c[nH]c2ccccc12)C(=O)N[C@@H](CC(C)C)C(=O)N[C@@H](CCSC)C(=O)N[C@@H](CC(N)=O)C(=O)N[C@H](C(N)=O)[C@@H](C)O
B5: mt-120 (peptide)
peptide: YSQGTFTSDYSKYLDEQAAKEFIAWLMNGGPSSGAPPPS-NH2
modifications: lactam 16-20; N-terminus assumed
SMILES: CC[C@H](C)[C@H](NC(=O)[C@H](Cc1ccccc1)NC(=O)[C@H](CCC(=O)O)NC(=O)[C@@H]1CCCCNC(=O)CC[C@H](NC(=O)[C@H](CC(=O)O)NC(=O)[C@H](CC(C)C)NC(=O)[C@H](Cc2ccc(O)cc2)NC(=O)[C@H](CCCCN)NC(=O)[C@H](CO)NC(=O)[C@H](Cc2ccc(O)cc2)NC(=O)[C@H](CC(=O)O)NC(=O)[C@H](CO)NC(=O)[C@@H](NC(=O)[C@H](Cc2ccccc2)NC(=O)[C@@H](NC(=O)CNC(=O)[C@H](CCC(N)=O)NC(=O)[C@H](CO)NC(=O)[C@@H](N)Cc2ccc(O)cc2)[C@@H](C)O)[C@@H](C)O)C(=O)N[C@@H](CCC(N)=O)C(=O)N[C@@H](C)C(=O)N[C@@H](C)C(=O)N1)C(=O)N[C@@H](C)C(=O)N[C@@H](Cc1c[nH]c2ccccc12)C(=O)N[C@@H](CC(C)C)C(=O)N[C@@H](CCSC)C(=O)N[C@@H](CC(N)=O)C(=O)NCC(=O)NCC(=O)N1CCC[C@H]1C(=O)N[C@@H](CO)C(=O)N[C@@H](CO)C(=O)NCC(=O)N[C@@H](C)C(=O)N1CCC[C@H]1C(=O)N1CCC[C@H]1C(=O)N1CCC[C@H]1C(=O)N[C@@H](CO)C(N)=O
B6: mt-115 (peptide)
peptide: HSQGTFTSDYSKYLDEIHQKDFVNWLLAGGPSSGAPPPS-NH2
modifications: lactam 16-20; N-terminus assumed
SMILES: CC[C@H](C)[C@@H]1NC(=O)[C@@H](NC(=O)[C@H](CC(=O)O)NC(=O)[C@H](CC(C)C)NC(=O)[C@H](Cc2ccc(O)cc2)NC(=O)[C@H](CCCCN)NC(=O)[C@H](CO)NC(=O)[C@H](Cc2ccc(O)cc2)NC(=O)[C@H](CC(=O)O)NC(=O)[C@H](CO)NC(=O)[C@@H](NC(=O)[C@H](Cc2ccccc2)NC(=O)[C@@H](NC(=O)CNC(=O)[C@H](CCC(N)=O)NC(=O)[C@H](CO)NC(=O)[C@@H](N)Cc2c[nH]cn2)[C@@H](C)O)[C@@H](C)O)CCC(=O)NCCCC[C@@H](C(=O)N[C@@H](CC(=O)O)C(=O)N[C@@H](Cc2ccccc2)C(=O)N[C@H](C(=O)N[C@@H](CC(N)=O)C(=O)N[C@@H](Cc2c[nH]c3ccccc23)C(=O)N[C@@H](CC(C)C)C(=O)N[C@@H](CC(C)C)C(=O)N[C@@H](C)C(=O)NCC(=O)NCC(=O)N2CCC[C@H]2C(=O)N[C@@H](CO)C(=O)N[C@@H](CO)C(=O)NCC(=O)N[C@@H](C)C(=O)N2CCC[C@H]2C(=O)N2CCC[C@H]2C(=O)N2CCC[C@H]2C(=O)N[C@@H](CO)C(N)=O)C(C)C)NC(=O)[C@H](CCC(N)=O)NC(=O)[C@H](Cc2c[nH]cn2)NC1=O

Biological target: GLP-1 receptor (UniProt P43220 24-463, limits assumed)
Assay: cell-based or functional assay

Binder	EC50	relative activity
B1	2.02 nM	1.49%
B2	0.66 nM	10.6%
B3	24.8 nM	0.16%
B4	0.32 nM	12.5%
B5	0.399 nM	13.4%
B6	0.15 nM	20%
YSQGTFTSDYSKYLDEIHQKDFVNWLLAQ-NH2 [mt-109]	3.86 nM	0.78%
YSQGTFTSDYSKYLDEIHQKEFVNWLLAQ-NH2 [mt-118]	1.28 nM	2.34%
YSQGTFTSDYSKYLDEIHQKDFVNWLLAGGPSSGAPPPS-NH2 [mt-116]	3.8 nM	1.07%

Biological target: glucagon receptor (UniProt P47871 26-477, limits assumed)
Assay: cell-based or functional assay

Sequence of glucagon receptor (P47871 26-477 limits assumed): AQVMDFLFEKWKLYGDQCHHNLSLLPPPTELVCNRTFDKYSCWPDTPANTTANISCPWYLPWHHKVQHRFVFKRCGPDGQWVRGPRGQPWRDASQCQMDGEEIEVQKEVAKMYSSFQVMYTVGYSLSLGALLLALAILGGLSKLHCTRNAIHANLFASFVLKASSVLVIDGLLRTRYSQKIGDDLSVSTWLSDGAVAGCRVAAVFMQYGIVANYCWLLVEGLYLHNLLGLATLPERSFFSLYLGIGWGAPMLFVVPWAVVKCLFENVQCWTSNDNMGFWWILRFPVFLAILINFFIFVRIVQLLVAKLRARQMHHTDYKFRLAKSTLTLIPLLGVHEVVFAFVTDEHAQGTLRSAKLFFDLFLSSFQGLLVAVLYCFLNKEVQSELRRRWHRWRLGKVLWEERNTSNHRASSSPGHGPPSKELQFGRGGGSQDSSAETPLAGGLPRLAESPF

Binder	EC50	relative activity
B1	0.43 nM	23.3%
B2	0.27 nM	85.2%
B3	0.07 nM	186%
B4	0.19 nM	68.4%
B5	0.074 nM	259%
B6	0.44 nM	11.4%
YSQGTFTSDYSKYLDEIHQKDFVNWLLAQ-NH2 [mt-109]	0.13 nM	76.9%
YSQGTFTSDYSKYLDEIHQKEFVNWLLAQ-NH2 [mt-118]	0.04 nM	125%
YSQGTFTSDYSKYLDEIHQKDFVNWLLAGGPSSGAPPPS-NH2 [mt-116]	0.787 nM	18.7%

Biological target: T1, GIP receptor
Assay: cell-based or functional assay

Binder	EC50	relative activity
B1	0.478 nM	9.62%
B2	6.26 nM	0.78%
B3	3.37 nM	0.74%
B4	4.78 nM	0.52%
B5	2.62 nM	1.81%
B6	3.58 nM	1.31%
YSQGTFTSDYSKYLDEIHQKDFVNWLLAQ-NH2 [mt-109]	0.658 nM	6.99%
YSQGTFTSDYSKYLDEIHQKEFVNWLLAQ-NH2 [mt-118]	0.736 nM	6.39%
YSQGTFTSDYSKYLDEIHQKDFVNWLLAGGPSSGAPPPS-NH2 [mt-116]	0.617 nM	7.62%
